Results as given in US20220213211A1 (Memorial Sloan Kettering, published 2022).

Target: T1, biotinylated recombinant CD371 (soluble CD371) (Homo sapiens (Human), UniProt Q5QGZ9 65-265, biotinylated (site not stated))
T1 sequence: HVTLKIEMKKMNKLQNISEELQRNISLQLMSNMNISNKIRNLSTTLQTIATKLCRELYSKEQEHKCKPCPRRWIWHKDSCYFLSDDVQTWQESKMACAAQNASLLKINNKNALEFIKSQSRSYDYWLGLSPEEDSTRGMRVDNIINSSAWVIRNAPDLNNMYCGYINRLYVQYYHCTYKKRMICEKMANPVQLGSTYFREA
Test: biotinylated CD371 captured with streptavidin, soluble scFv as analyte
Source text: For scFv affinity measurements, biotinylated CD371 was captured with streptavidin, and soluble scFv was used as analyte. […] Consistent with the flow cytometry results, weak binding of the 1B10 scFv in the VH-VL orientation was observed but a dissociation constant could not be calculated by any curve fit method.

B1: B10 scFv in the VL-VH orientation (scFv)
scFv: DIVMTQSPDSLAVSLGERATINCKSSQSVLDSYNNENNLAWYQQKPGQPPKLLIYWASTRESGVPDRFSGSGSGTDFTLTISSLQAEDVAVYYCQQYTSEPITFGQGTKVEIKGGGGSGGGGSGGGSGGGGSEVQLLESGGGLVQPGGSLRLSCAASGFTFSDYQMSWVRQAPGKGLEWVSGIQGGGGSTYYADSVKGRFTISRDNSKNTLYLQMNSLRAEDTAVYYCAREMWRGDYYSGMDVWGQGTTVTVSS
notes: also called 1B10 scFv VL-VH; VL-VH scFv
A Kd of 16 nM, a koff of 0.00952 s⁻¹ and a kon of 599000 M⁻¹ s⁻¹ were found for B1 in this work.
